The source of these data is US10182986B2, “Method of delivering therapeutics and imaging agents to the brain by nanoparticles that cross the blood brain barrier” (CALIFORNIA INSTITUTE OF TECHNOLOGY, priority 2013, dated 2019).

The series can be described thus: Tf-DAK-PEG-OPSS degradation in pH 5.5 buffer followed by MALDI-TOF. The class given is physicochemical. The conditions noted are these: 37° C., crude mixture.

Protocol: At various time points, aliquots were removed, diluted 1:10 in 10 mM NaH2PO4 pH 8.0 and frozen on CO2(s). Once the last aliquot was removed, all samples were melted and immediately measured by MALDI-TOF using a sinapinic acid matrix.

For “Tf-DAK-PEG-OPSS: human holo-Tf conjugated through diamino ketal (DAK) linker to PEG-orthopyridyl disulfide”, the “Time by which nearly all the PEG has cleaved” value was not above 2 h.
